Ends that are not written are not given here.
What was measured:
DRα1-mMOG-35-55 [1] = target: T1, DRα1-mMOG-35-55; test: competition ELISA (FIG. 4), competitor against rmCD74 on DRα1mMOG-35-55
T1 construct: Coated onto ELISA plates at 1 µg/ml; also called DRa1mMOG-35-55; DRα1-MOG-35-55

DRα1-mMOG-35-55 [2] = target: T1, DRα1-mMOG-35-55; test: competition ELISA (FIG. 4, right panel), competitor against rmCD74 on DRα1-mMOG-35-55
[3] = target: T2, human macrophage migration inhibitory factor (MIF) (human, UniProt P14174 2-115); test: competition ELISA, hMIF coated, competitor against rmCD74 (0.5 µg/ml), two-binding-site fit
T2 construct: Coated onto ELISA plates at 0.5 µg/ml; also called hMIF; human MIF
Procedure: (§1) The ability of α-helix 1 and α-helix 2 peptides to compete with MIF for binding to CD74 was tested. […] Wells were thoroughly washed with PBS/T20 and the mAb PIN.1/anti-mIgG1-HRP (at 0.5 μg/ml in 5% BSA/PBS each) was used to detect the remaining rmCD74 bound to MIF. This mAb recognizes an epitope located at the N-terminus of the protein. Color was developed after adding 50 μl of TMB for 5 minutes and the reaction was stopped with 50 μl of 0.1N HCl. Data was first normalized and then analyzed using GraphPad Prism software. IC₅₀ were calculated by fitting the curve to a competition model involving a two-binding site equation.

RTL1000 = target: T3, RTL1000; test: competition ELISA, RTL1000 coated, competitor against rmCD74 (50 nM), one-binding-site fit
T3 construct: Coated onto ELISA plates at 1 µg/ml; also called recombinant T cell receptor ligand
Procedure: (§2) Competition of peptides with rmCD74 for binding to RTL1000 or DRα1mMOG35-55 was also tested. Briefly, 50 μl of 1 μg/ml either RTL1000 or DRα1mMOG-35-55 were coated onto ELISA plates at 25° C. for 2 hours. […] Serial 1:2 dilutions of α-helix 1 or α-helix 2 (starting with a concentration of 66 μM, 50 μg/ml each) were prepared in rmCD74 (in BSA/PBS, 50 nM, 0.5 ug/ml) and added to the plate. Competition for the binding site was allowed for 3 hours at 25° C. and then unbound complexes were washed 4 times with PBS/T20. Remaining rmCD74 bound to RTL1000 or DRα1mMOG-35-55 was detected by the PIN.1/anti-mouse IgG1-HRP at 1 ul/ml of both in BSA/PBS for 1.5 hours at 25° C. and visualized by adding TMB substrate (50 μl, according to the manufacturer's instructions). Color development was stopped with 0.1N HCl and the plate was read at 450 nm in an ELISA plate reader. Data were normalized and fitted to a one-binding site model and competitor concentration was plotted against Absorbance at 450 nm to determine the IC₅₀ of each peptide competitor. All data were analyzed using Prism software (GraphPad).

DRα1-mMOG-35-55 [4] = target: T1, DRα1-mMOG-35-55; test: competition ELISA, DRα1mMOG-35-55 coated, competitor against rmCD74 (50 nM), one-binding-site fit
Procedure: as §2

[5] = target: T2, human macrophage migration inhibitory …; test: competition ELISA, hMIF coated, competitor against rmCD74
Procedure: as §1

DRα1-mMOG-35-55 [6] = target: T1, DRα1-mMOG-35-55; test: competition ELISA (FIG. 4, left panel), competitor against rmCD74 on DRα1-mMOG-35-55

IC50 (DRα1-mMOG-35-55 [1]) [µM]	IC50 (DRα1-mMOG-35-55 [2]) [µM]	IC50 [3] [µM]	IC50 (RTL1000) [µM]	LogIC50 (RTL1000)	IC50 (DRα1-mMOG-35-55 [4]) [µM]	LogIC50 (DRα1-mMOG-35-55 [4])	fold increase of the blocking effect against α-helix 1 alone [5] [fold]	IC50 (DRα1-mMOG-35-55 [6]) [µM]	Binder
35	35	41.8	6.78	0.831	10.1	1	–	–	TEDHVMHLLQNAD (also called human CD74 α-helix 1; alpha helix 1) [CD74 α-helix 1 peptide (SEQ ID NO: 2)]
4.75	–	3.74	–	–	–	–	10	4.71	mixture of synthetic peptides SEQ ID NO: 2 (α-helix 1) and SEQ ID NO: 4 (α-helix 2) (other, also: mixture of two separate peptides, not covalently linked, A mixture of two separate peptides that are not covalently linked; In the hMIF assay the starting concentration was 33 µM of each peptide, 66 µM in total; also called α-helix 1 plus α-helix 2; combined peptides) peptide 1: TEDHVMHLLQNAD peptide 2: KGSFPENLRHLKNTMET
–	24.5	114	34.3	1.53	167	2.22	–	–	KGSFPENLRHLKNTMET (also called human CD74 α-helix 2; alpha helix 2) [CD74 α-helix 2 peptide (SEQ ID NO: 4)]

From patent publication US20170114117A1 (OREGON HEALTH AND SCIENCE UNIVERSITY, published 2017)
